Assay results as given in the domain aggregation screens of Martell et al. (2025).

experiment: soluble fraction after stress (log2 fold change); higher = more stays soluble; pooled small domains, quantitative proteomics; details: stress: pH 4
Method in brief: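 With high-throughput quantitative proteomics, pooled custom libraries of small protein domains were measured after pH 4 stress. Each domain's soluble amount after the stress gives a fold change taken as aggregation propensity. Higher log2 values mean more of the domain stayed soluble.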

| Sequence | soluble fraction (log2) |
| --- | --- |
| HMIADPLVINKLMDSMALAINDYNPDSVEPVLDELRQYFSENQLRELSKAMDDFDFDEALNALTLLRT | -0.619 |
| HMGAAVEVISLRYRSAAELLPIVRSLLSTEGKISADERTNSLIIVDSDEAVARVIHSLATLDT | -0.851 |
| HMRSHLSANLQRLRHIAGLTQKDLALAANLPRATLASLEQGEANPRLDTLLAVASALQVGLDELIAAP | -1.1 |
| HMEEFDLNAYITKINSAATLNALKQAYAEANSAALSVKDKDAQRKIIVEKDKRKAELIQETAG | 0.313 |
| HMFDFGNHLRMLREKHGISQEELGRRVGRAGSVISNYENNIKIPTLDVLTTMARIYDVSLDYLVG | -1.06 |
| HMSEEGTIPDVSGQDEASAQKALENAGFTNIKSEAVYSEEEQGTVIDTNPTAGTKVSKDTEITMQVSKGSE | 0.108 |
| HMVWNVEQIKRAVDQLPDGYRVVFTLYLFEGYDHREIADILGISEGGSKSQFNRAKSKLKEILTAMS | -1.2 |
| HMEVAASEQRDNLWALARRVLSGEQYDVLYLRYVEDFSVAQIADVVGKTQTHVKVLLFRGRNNLGSRLRS | -0.0684 |
| HMDGIGLRVRMIREGVGLTQKQLAEHLGMQRTALVQVEAGSRKLSASELIGVARFFNITVEQFLDPEK | -1.72 |
| HMEQTIKKYVNVATLNFRSGPSTSYSIISTLSKGTKVEVISTTNNWSKIIYDGKIGYVSSEYLSKSI | ≥ 0.43 |
| HMDPLADLFSRIRNAQMRNKKVVTSPASKLRAGILEVLAKEGYIRGYAMTQHASGKNELDIELN | -0.0916 |
| HMNQRQKQLLSILEQQGDWMKGKALATLLAVSDRTIRSDIEKINREVEGSILSHPHKGYLLSVENRQIAET | 0.0959 |
| HMRNTPQRRHAILALLSEQGEVSVDALAKRFSTSEVTIRKDLAAMESHGLLLRRYGGAVPMPQELI | 0.0719 |
| HMSDMIGQNIRRLRTEKQMTQKALADKLFVTAQAVSRWENGEVEPSLSTVTEIARIFNVSADEILGI | -0.284 |
| HMGQARQSAIRELGNDPTSGKKITVRSGRYGPYVTDGEVNASLRKGDDPQTIDLDRAIELLAARREKLG | -0.324 |
| HMEQISDEDTLRKMVNEVLDNNQTQLEQYKSGKTNLIGFFVGQTLKKSAGKANPSIVNKLVNEEIYI | 0.0623 |
| HMLVATFGPTTGWEGREIIWDVDRFILVGHGAVPAAGVLDYDRRGQLIWAQPELRAWVVEVDRWETG | -1.61 |
| HMEHTPHGVALLRTLMDQYGLKAADLANELGSKSNVSNILNGRRALTVSHIKMLAERFNLPADAFI | -0.137 |
| HMILSTNFFRHIVPKEYQTSYGTMKKWLTDHNVIGTNSIPQGIGYRIPTQGLSSTFSFKVVDVLPDR | ≥ 0.43 |
| HMIFELDSDRASAGNTIGKLVSKWNNTEVASVQFVSGDDTSNKDNASIYLNTRSGGSGNLVRLRITK | 0.108 |
| HMTGKTTLEYLNPLLERGIPVWDYLAKASGKAKEEVQEMVSKGLVPGAEAAKAIADYMGAEFAGSMA | -0.343 |
| HMRILGIDPGTRITGYGIIDIEGNRLRHVDNGIIKTRSSDALPLRLKVIYDGLTAVLKQYSPQAV | -0.629 |
| HMYRPQQEFTMRDLFQNNLNGSESASVRRDALGAELGIGYGNAKRFLERLNHYGVSREEFTAALEKLESE | -0.205 |
| HMISFTDLEHIEKMIENVLYTKTPLNLPPTDAKIRKIEHQIARRYGLNSESFGDEPRRFVVVYPNEERE | 0.0997 |
| HMAGPGAEVVDRLIAVLTGERPATAADQVLLSILKGLGIGGVVLPSERTGLGWSGLYQRVKEITDMN | -1.21 |

| Sequence | soluble fraction (log2) |
| --- | --- |
| HMLDIPEVGQAVQVRGRLGTVFSVAPYDGREGRLHLVTVDYLDDARPPENDEILWEIESGARILG | -0.763 |
| HMGESVVVPDLRGKTLEEARAILKKVDLDYEINDSTYSKTAVPGTIRDIVPAPGSHVKAGRILFVSING | 0.0395 |
| HMNSLGYSDFVVDVQNERVASVVIEGLIINGERRDGTKFRTVLPTIGDQRLMDDLINHNVKVLARE | 0.226 |
| HMESPLEQLTNRELQTLQMLGKGLSTKQIAAQLNLSVKTVETYRENLKRKLNLDSGSELIRYAIHRSNE | -0.0124 |
| HMISKAQLFSEEELTELYRATGYQLENDPEIHREQFEALQAVRAKIEYAVPDVQEKLEQEQNLGQQ | -1 |
| HMHGLNQNKPIPIADIVNSVNNYLTSLGKKTITDNSVLSNLKKAAKYLNTAYNLVLRPDSLNMTVTLL | 0.22 |
| HMGGREEAGTDIARLLGYINDIHGEELIAKLEYYQKMLGSENFAVLMSRLPDGQKKELREQNLYSEYV | -0.298 |
| HMGNLVDGINKKLTHVRDSLPEGYTLDEFKSAFQQQYPAAYDAYEGDKGKQFDKWLGNVIQSLPKK | 0.137 |
| HMGSLVVVPNLVGQNYDEVKLSTKYSDFEIVQKNTEYSEAPAGQIIKQDPEAGTKVKKHSTINVTVSK | -0.287 |
| HMGKNIQAIRYKNNMTQDQVVAKLNLMGISITKSTYAKLETNRMNIKASELVALAKLFHTDINAFFSG | -0.0779 |
| HMTPEPVREALTFQEGRVFALAAKNMTNAEIAQSLSLKLKTVENYMSIIYQKLALKNRYELLVYARKSGV | -0.117 |
| HMFEPLTDREREVLQALADGLSDKEIAERLYISPATVRTHITAILGKLDANSRLQAVVVAARHNLVTL | -0.926 |
| HMPAVVEFDVKPRGEVLVDGIWYGRIPELREVELRPGRHHLRVQNAGHPSLDLVVTLEPGERMTVTHTFA | -0.33 |
| HMIKSEERIQNIKEYILEFQFTYHRTPTMAQIAEAVGTVKSNVYKYLSEMEERGILTRNKREIEINDTIQ | -0.588 |
| HMSMEKNWVPSEDVIEILTRAGMNENFIRELIPEFIIYWSERKDVLISYDSKFIEHARLKWAQHNAE | 0.0608 |
| HMLEEIIDVKRFLVENVRGVSEKTALAILSEFGDKTMDVLRNSPNELYRIKGMSGKRIEVIKDAIANATAS | -1.33 |
| HMAAFGDLLSELRRDMNMTQDELAKVLFVSPGTISNYENNIHFPDVPKLKQIAQYFGVTTDYLLG | -1 |
| HMIDYTDTSAVKDSAAVAGRVREMINEGVPIADVNAFIRSASENGLISDDSARRLRYMNDSR | ≥ 0.43 |
| HMGKSKAAQSSLVRSIMHQISDKNRGPMPLSEIIDRASIQSIDEAIVRSLVSRMKEQGEIYEPSLGTYEF | -0.163 |
| HMTRIHEEVVNQVHDLVKEGRFKAGDQLPSERELAEIFKVSRTSVREALRALETQGLIISRTGMGNFIAD | -0.472 |
| HMSGKGEFDQLLRSGEYVQAFQRANANGNVTLRRQQLLNLARHQAASGVGSGAIESLSTIQRI | 0.104 |
| HMTITDDETHKVLEEGASRMSEGLTFRDLVDLDRLHLTARGVIQKVLNENRIDADVDTIANMAQKLVARVS | -0.567 |
| HMGNLEENFRLKAGTEDGAWEFIRYHLGKLPVVNESNGTAIVNAERQAFLLFDRMVAFHIQRGVMVPLSAP | -0.159 |
| HMLAQVSDEGPIRAMVEAVMARSTQQLEDYKNGKVKLRQYFFGEVMKAAKGKANPTVINKLLDEMLPETL | 0.0418 |
| HMKETERKILQAVLGLPLKYRDVIHLFYYEEMSVKEIAEVLHRQESTVTSQLTRARGILKKNL | -0.377 |

| Sequence | soluble fraction (log2) |
| --- | --- |
| HMSRPLISNMLRLLNLPPTVQRKVAAGVISAGHARALLGLNDEKEIEKLANRIVAEGLSVRATEEIVAIA | -1.28 |
| HMERPLFVIEDYRRFAGNEVEISLKKGGKKIRGVIAGTPSDAEVTVRTQGGETTVPLGDVKRAHLVYV | 0.0919 |
| HMAKRTVPSVAEAIDNFRRQHRRMPSYAEMLPLLGVRSKSVVHFWINKLLENGLLEKDDKGYLTPGS | -0.241 |
| HMKLSIGGTIEKLRRNKGLSHQQLANALGVTPDTVEKWEINAAYPDITLLSPIARLLGTTLDALLMF | -0.828 |
| HMSLPKIVVPTDVTVSQLAKYLEVDAISIIKQLFGMGVVASLNQRLEDEIIQLIGNEFGKEIIFSE | -0.107 |
| HMPKYLNIYHELAQRIQEGALPAETKLPSETELMQEFEASRGTVRKAIDALQEKGFVRKHQGKGVFVLSQ | 0.152 |
| HMTESFEFTMNDLVQNNLIMGSGAKERRIAVGEALGIGYTNAKQFLSRLNHYGITRKEFDDEIEKVNQN | -0.217 |
| HMGNLASRVAEQLLDKMRGDSLVPGTRLPSEIAMAKHFGVSRTVMREAIARLKADGLLETRRGSGAFVLAT | -0.0652 |
| HMNAESLIGDRAVVTVAIERNKRGRVDVTGQDWAATTRDGEEIKVGQEVLVVGISGVALIVEER | 0.164 |
| HMKKITTANPLDINRATLAQLDTLPGIGPVTAERIIAYRSKVGRINSLDELKKISGLGGMKFEEIKPLLRV | -0.126 |
| HMGEKFTFGQIAKAKAYAKTYANDMTSAVKNIEAIATGLSKHPEVADTLKKANENQELNRITKLAG | 0.369 |
| HMDDTPLNNVIKKIAALPENITLADKSAVLSAWEAYQALSVNLKAQVSNSELLIKAYETILQLEGEDQIK | -0.397 |
| HMPAEGWEASGDTWRYRQKDGSYITNAWVQDTDGKWYYFDESSLMVRNQTTSDGYYVGEDGVWTET | -1.83 |
| HMTKAILTANDVRNGDIVFWTADQRWSTSIDDAAIGYGKDDTDQLADAGKQAEAANTVVGAYLIALR | -1.14 |
| HMTDSQLVEAENHVALRQAMAHLGPRERELIGLYYFEEQSQTQIAARFGVSQMQVSRWLTSAVGRIRGQMA | 0.131 |
| HMGYKDIDKLSGVDLAIYRFIVEHDEQIPYMRVRELARGAHVSNSSVMRFIRKIGYDSFPEFKVSLRS | -0.322 |
| HMRRSDLVTQGDEILKRLQWNQQQAKDFLNQHLKASSRQQLTDEQLLNFNMLLEEQLVKSME | -0.0311 |
| HMLDSGNPILPYKLSLLANVDIRTVRNAISAGELVAFKSEFDGEVYVENGSARRWLHGRRGFKPTLK | -0.772 |
| HMQNNITISKEIELRTGPDDTYPTLKKVTAGDNVEMLSKSDTWYEIKTNDSFVGWVPGWSIL | -0.656 |
| HMQDEREEIAVEDVVGMPLWQARKVIADQGFRVLDDGAGDIVIAQMPSGGGKLIEGGQVMLYTYTD | -0.201 |
| HMLTEEVEISLMDMTKPTQPATIKTTATIQKGATTVMPKQIKMPEGYEFYGNYKMDQPFELTMTFVVKKI | -0.0427 |
| HMTDQYEVQNLVGLTVREAQEKEGVKDIFEVREVGSEFSAEYDAGLIVRQSPDAGEQRKGEGLVIEVWVSA | -0.409 |
| HMDGISANAVKALIESLIAGEDKRKPLSDQAMSDRLALQGIVLARRTVAKYREELNFPPAHQRKQK | 0.22 |
| HMVLPELRLQGLPTAVLRLINRATALADDYRRLMEIAEDGRIDEWEAPEFERISENIQRVIAAGFEVL | 0.1 |
| HMGKPSSEELEALGRRTLEENVDVVEEILGGRDPKGKKIKYLEGLMMRALRGQETPEAVRRTLEELIFK | 0.00684 |
